B1: chicken netrin‐2L (netrin‐2‐like) (ligand)
chain: not shown
notes: netrin-2 (netrin-2-like), chicken, used in place of human netrin-3 as its ortholog; Used because recombinant human netrin-3 was not soluble; also called NTN2L; NTN‐2L; source: recombinant

What was measured:
[1] = target: B1; assay: BLI; OctetRED96; netrin-1 or netrin-2 coated on HIS1K biosensors, UNC5 ECDs in solution at 3.12-100 nM; 30°C, 1,000 rpm, PBS, 0.02% Tween-20, 0.1% BSA; 5 min association, 5 min dissociation; 1:1 binding model; details: both partners purified
[2] = target: T1, extra‐cellular domain (ECD) of mouse DCC (mouse, UniProt P70211 26-1097); assay: BLI; OctetRED96; ECDs of mNeogenin or mDCC coated on AHC biosensors, hNetrin-1 or chNetrin-2 in solution at 3.12-100 nM; 30°C, PBS, 0.02% Tween-20, 0.1% BSA with 1 µg/ml Dextran 5,000; 1:1 binding model; details: both partners purified
T1 construct: DCC (deleted in colorectal carcinoma), mouse, extracellular domain; The Fc is inferred from the capture on AHC biosensors; also called mDCC; source: recombinant
T1 sequence (P70211 26-1097): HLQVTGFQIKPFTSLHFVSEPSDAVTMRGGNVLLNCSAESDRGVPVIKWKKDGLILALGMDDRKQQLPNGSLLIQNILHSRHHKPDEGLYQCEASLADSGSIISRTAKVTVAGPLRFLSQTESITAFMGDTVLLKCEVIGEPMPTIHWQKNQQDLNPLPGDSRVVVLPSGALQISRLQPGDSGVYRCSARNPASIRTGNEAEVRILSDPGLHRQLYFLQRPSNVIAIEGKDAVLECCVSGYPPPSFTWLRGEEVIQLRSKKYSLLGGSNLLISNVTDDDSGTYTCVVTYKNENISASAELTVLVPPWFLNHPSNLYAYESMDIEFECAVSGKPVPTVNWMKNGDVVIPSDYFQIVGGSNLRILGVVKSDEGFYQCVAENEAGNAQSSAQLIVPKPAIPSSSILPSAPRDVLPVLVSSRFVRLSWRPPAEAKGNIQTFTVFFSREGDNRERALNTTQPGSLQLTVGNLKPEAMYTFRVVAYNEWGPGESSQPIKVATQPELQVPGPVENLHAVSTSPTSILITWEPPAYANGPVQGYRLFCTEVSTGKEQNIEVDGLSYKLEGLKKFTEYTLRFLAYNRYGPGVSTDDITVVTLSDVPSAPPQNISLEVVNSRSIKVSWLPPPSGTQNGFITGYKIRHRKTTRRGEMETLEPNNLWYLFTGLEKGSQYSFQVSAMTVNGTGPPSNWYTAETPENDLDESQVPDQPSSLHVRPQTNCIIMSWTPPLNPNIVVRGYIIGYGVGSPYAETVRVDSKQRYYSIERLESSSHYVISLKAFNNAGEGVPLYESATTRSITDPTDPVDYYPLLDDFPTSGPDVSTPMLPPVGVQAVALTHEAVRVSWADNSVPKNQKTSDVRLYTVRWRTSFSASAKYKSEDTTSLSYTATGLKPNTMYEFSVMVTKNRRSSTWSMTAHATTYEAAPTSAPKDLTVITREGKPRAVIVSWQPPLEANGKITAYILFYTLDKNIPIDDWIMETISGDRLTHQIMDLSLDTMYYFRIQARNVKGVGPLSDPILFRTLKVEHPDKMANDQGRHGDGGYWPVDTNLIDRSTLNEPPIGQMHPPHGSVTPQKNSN

Row | binding result [1] | binding result [2] | Binder
1 | binds | – | extra‐cellular domain (ECD) of human UNC5H3 (domain or fragment, UNC5H3 (UNC5C), human, extracellular domain; it may be an Fc chimera like the other ECDs; also called hUNC5H3; UNC5‐C; source: recombinant) not shown
2 | – | binds | B1
3 | binds | – | extra‐cellular domain (ECD) of human UNC5H1 (domain or fragment, UNC5H1 (UNC5A), human, extracellular domain; it may be an Fc chimera like the other ECDs; also called hUNC5H1; UNC5A; source: recombinant) not shown
4 | binds | – | extra‐cellular domain (ECD) of rat UNC5H2 (Fc fusion, UNC5H2 (UNC5B), rat, extracellular domain; The Fc is inferred from the capture on AHC biosensors in the antagonism test; also called rUNC5H2; UNC5‐B; source: recombinant) not shown

From publication PMC8033513, “Targeting netrin‐3 in small cell lung cancer and neuroblastoma” (EMBO Molecular Medicine, 2021)
